Results from the supplement of paper PMC7877785.
± gives the uncertainty stated by the source.

Test: self-splicing fitness, log relative to wild type (ln ratio); higher = more splicing; Tetrahymena group I intron in knt gene, E. coli kanamycin selection, DiMSum; sequences stand for … in CUCUCU…GGAGGGAAAAGUUAUCAGGCAUGCACCUGGUAGCUAGUCUUUAAACCAAUAGAUUGCAUCGGUUUAAAAGGCAAGACCGUCAAAUUGCGGGAAAGGGGUCAACAGCCGUUCAGUACCAAGUCUCAGGGGAAACUUUGAGAUGGCCUUGCAAAGGGUAUGGUAAUAAGCUGACGGACAUGGUCCUAACCACGCAGCCAAGUCCUAAGUCAACAGAUCUUCUGUUGAUAUGGAUGCAGUUCACAGACUAAAUGUCGGUCGGGGAAGAUGUAUUCUUCUCAUAAGAUAUAGUCGGACCUCUCCUUAAUGGGAGCUAGCGGAUGAAGUGAUGCAACACUGGAGCCGCUGGGAACUAAUUUGUAUGCGAAAGUAUAUUGAUUAGUUUUGGAGUACUCGUGGUCG
Outline: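 The eight P1ex-region nucleotides of an intron in the knt kanamycin-resistance gene on pET-22b(+) were all randomised and the library put into E. coli BL21(DE3). Six replicate transformations were grown overnight at 37°C or 30°C on LB agar with or without 25 μg/mL kanamycin, together with 100 μg/mL carbenicillin, 50 μM IPTG and 0.2% rhamnose. Colonies were pooled and amplicon-sequenced on an Illumina HiSeq 2500. Fitness from DiMSum is the error-weighted combination of wild-type-normalised replicate fold changes, kanamycin over none.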

Sequence | self-splicing fitness (ln) (30 °C) | self-splicing fitness (ln) (37 °C)
GGGCAGCAAUAUUACGUCUU | -0.531 ± 0.081 | 0.0306 ± 0.098
CGGAAGCAAUAUUACGCAUG | -1.53 ± 0.13 | -0.32 ± 0.11
CGACAGCAAUAUUACGCCUA | -2.48 ± 0.19 | -1.01 ± 0.17
UACAAGCAAUAUUACGGCGA | -0.244 ± 0.072 | 0.0939 ± 0.087
AUUCAGCAAUAUUACGUUAA | -1.62 ± 0.12 | -0.923 ± 0.1
AACCAGCAAUAUUACGGAAU | -2.06 ± 0.08 | -0.602 ± 0.091
CGUAAGCAAUAUUACGCUAU | -3.13 ± 0.27 | -4.43 ± 0.42
UUUGAGCAAUAUUACGGCCA | – | -1.17 ± 0.46
ACAUAGCAAUAUUACGUUAU | -4.28 ± 0.29 | -3.07 ± 0.2
ACAUAGCAAUAUUACGUCGC | -4.47 ± 0.38 | -1.69 ± 0.24
CGAAAGCAAUAUUACGCGUG | -1.16 ± 0.068 | 0.12 ± 0.079
AUUUAGCAAUAUUACGUACU | -0.21 ± 0.11 | -0.13 ± 0.15
UUCAAGCAAUAUUACGUCAA | -0.772 ± 0.092 | -0.645 ± 0.1
UAAAAGCAAUAUUACGCAUU | -3.33 ± 0.19 | -2.15 ± 0.19
GCACAGCAAUAUUACGCAUC | -1.07 ± 0.083 | -0.51 ± 0.096
UGUGAGCAAUAUUACGGCAG | -2.64 ± 0.27 | -0.26 ± 0.28
AGGGAGCAAUAUUACGCUAU | -3.63 ± 0.43 | -1.85 ± 0.49
GAUCAGCAAUAUUACGUUGG | -3.67 ± 0.24 | -0.912 ± 0.12
UUGCAGCAAUAUUACGACUC | -1.2 ± 0.11 | -0.0756 ± 0.12
AUCCAGCAAUAUUACGCCAG | -0.923 ± 0.44 | -2.6 ± 0.48
UAUCAGCAAUAUUACGUCGG | -1.02 ± 0.064 | 0.0416 ± 0.082
GCGGAGCAAUAUUACGUUUA | – | -2.33 ± 0.37
CACAAGCAAUAUUACGGCCG | -0.104 ± 0.077 | 0.524 ± 0.1
ACUCAGCAAUAUUACGAUAA | -1.25 ± 0.078 | -0.67 ± 0.097
UCUGAGCAAUAUUACGCAUU | -3.77 ± 0.37 | -2.15 ± 0.31

Sequence | self-splicing fitness (ln) (30 °C) | self-splicing fitness (ln) (37 °C)
AAGCAGCAAUAUUACGAGAG | -4.01 ± 0.29 | -2.49 ± 0.25
UAUAAGCAAUAUUACGUACG | -0.621 ± 0.13 | -0.0322 ± 0.15
GUUGAGCAAUAUUACGUCUC | – | -0.823 ± 0.46
GCUAAGCAAUAUUACGGUGC | -3.38 ± 0.22 | -2.6 ± 0.39
CGCGAGCAAUAUUACGGACA | – | -0.573 ± 0.34
CAUCAGCAAUAUUACGGAUC | -1.79 ± 0.088 | 0.216 ± 0.11
GUCUAGCAAUAUUACGUGGG | -2.01 ± 0.12 | -1.64 ± 0.16
UACUAGCAAUAUUACGGUCA | 0.103 ± 0.086 | 0.31 ± 0.083
CCCCAGCAAUAUUACGGCCC | – | -1.64 ± 0.47
CUCCAGCAAUAUUACGGGCG | -1.74 ± 0.092 | -1.2 ± 0.13
AUGCAGCAAUAUUACGCAUG | -3.28 ± 0.35 | -2.66 ± 0.31
UCAAAGCAAUAUUACGAGUA | -2.07 ± 0.083 | -0.678 ± 0.072
GAUAAGCAAUAUUACGGAAC | -3.85 ± 0.42 | -1.6 ± 0.18
AUUGAGCAAUAUUACGAGAU | -3.73 ± 0.35 | -1.11 ± 0.26
CUUGAGCAAUAUUACGGCCU | -3.92 ± 0.37 | –
ACACAGCAAUAUUACGGACC | -1.99 ± 0.093 | -0.524 ± 0.11
GAGAAGCAAUAUUACGCAAG | -1.6 ± 0.2 | -0.212 ± 0.21
UUUCAGCAAUAUUACGCCGA | – | -0.923 ± 0.44
CCCAAGCAAUAUUACGCUCG | -3.17 ± 0.2 | -2.14 ± 0.33
ACGGAGCAAUAUUACGGCAA | -2.98 ± 0.3 | -2.61 ± 0.27
CCCCAGCAAUAUUACGCUAG | -3.68 ± 0.13 | -2.86 ± 0.17
UGAUAGCAAUAUUACGCCGA | -2.91 ± 0.32 | -1.28 ± 0.18
AAUAAGCAAUAUUACGUUAA | -2.76 ± 0.19 | -0.928 ± 0.13
AAAAAGCAAUAUUACGCCUG | -0.823 ± 0.09 | -0.000429 ± 0.12
CACGAGCAAUAUUACGAUCA | -2.68 ± 0.22 | -2.11 ± 0.19

Sequence | self-splicing fitness (ln) (30 °C) | self-splicing fitness (ln) (37 °C)
UGGGAGCAAUAUUACGGCCG | – | -1.37 ± 0.28
UCGCAGCAAUAUUACGCUUU | -3.69 ± 0.18 | -1.84 ± 0.13
CCGAAGCAAUAUUACGCUGG | -2.83 ± 0.22 | -3.49 ± 0.35
UAGAAGCAAUAUUACGCCGG | -0.817 ± 0.12 | -0.196 ± 0.18
GGGGAGCAAUAUUACGCGAU | – | -0.791 ± 0.24
CAAAAGCAAUAUUACGAGUC | -4.06 ± 0.24 | -2.65 ± 0.25
CUUGAGCAAUAUUACGGCGC | -3.72 ± 0.43 | -1.55 ± 0.41
AGGAAGCAAUAUUACGAUUU | -0.378 ± 0.078 | 0.0421 ± 0.11
CUAAAGCAAUAUUACGAGCC | -1.33 ± 0.18 | -0.475 ± 0.44
CUGUAGCAAUAUUACGACCC | -1.04 ± 0.43 | –
GUUUAGCAAUAUUACGACCC | -0.68 ± 0.19 | -0.133 ± 0.24
AGUCAGCAAUAUUACGGAGG | -2.93 ± 0.13 | -1.31 ± 0.15
CUUGAGCAAUAUUACGACGU | -3.62 ± 0.35 | -2.25 ± 0.21
AUGCAGCAAUAUUACGCACC | -1.11 ± 0.18 | -0.696 ± 0.21
GUUCAGCAAUAUUACGCAGU | -1.18 ± 0.14 | 0.201 ± 0.22
GCACAGCAAUAUUACGUAAC | -1.83 ± 0.092 | -0.651 ± 0.11
AUCUAGCAAUAUUACGUACA | -1.73 ± 0.15 | 0.464 ± 0.17
CGGCAGCAAUAUUACGCAUA | -2.08 ± 0.21 | -1.03 ± 0.13
AUCUAGCAAUAUUACGCUCG | -0.792 ± 0.091 | -0.0276 ± 0.12
GCCAAGCAAUAUUACGUUUU | -2.86 ± 0.085 | -1.3 ± 0.093
CAAAAGCAAUAUUACGCUGU | -3.49 ± 0.25 | -1.73 ± 0.18
GGCAAGCAAUAUUACGUCAU | -1.32 ± 0.072 | -0.111 ± 0.083
CGCCAGCAAUAUUACGGCCA | -0.294 ± 0.11 | 0.0865 ± 0.13
GCCGAGCAAUAUUACGUCGG | -4.39 ± 0.46 | –
CCUCAGCAAUAUUACGCGUU | -3.88 ± 0.23 | -2.96 ± 0.4

Sequence | self-splicing fitness (ln) (30 °C) | self-splicing fitness (ln) (37 °C)
CAGCAGCAAUAUUACGCUAC | -3.65 ± 0.38 | -2.81 ± 0.38
CGGCAGCAAUAUUACGACGC | -3.45 ± 0.28 | -0.355 ± 0.21
AGUUAGCAAUAUUACGCGCG | -0.159 ± 0.12 | -0.151 ± 0.15
AAGGAGCAAUAUUACGCUGG | -2.18 ± 0.24 | -2.24 ± 0.31
CCUAAGCAAUAUUACGGUUU | -4.49 ± 0.34 | -3.07 ± 0.34
GCGUAGCAAUAUUACGCACA | – | -1.71 ± 0.47
UUCCAGCAAUAUUACGGGUU | -2.05 ± 0.1 | -1.39 ± 0.13
UUCCAGCAAUAUUACGGUUG | -2.43 ± 0.11 | -1.75 ± 0.16
CCCGAGCAAUAUUACGGUAC | -4.04 ± 0.22 | -2.85 ± 0.21
UACCAGCAAUAUUACGGAGU | -3.23 ± 0.13 | -2.4 ± 0.17
AAGUAGCAAUAUUACGAAUA | -3.24 ± 0.34 | -2.29 ± 0.23
GUACAGCAAUAUUACGGUGG | -2.22 ± 0.1 | -1.63 ± 0.11
CUCAAGCAAUAUUACGGCCC | -2.42 ± 0.41 | –
GGUCAGCAAUAUUACGCCGU | -2.61 ± 0.16 | -0.39 ± 0.15
AUGGAGCAAUAUUACGUUGC | -3.34 ± 0.4 | -2.22 ± 0.42
ACGAAGCAAUAUUACGUGCA | -0.772 ± 0.066 | 0.325 ± 0.084
UCUCAGCAAUAUUACGAGCA | -0.507 ± 0.081 | 0.222 ± 0.12
CCGAAGCAAUAUUACGUGGG | -3.82 ± 0.14 | -2.39 ± 0.14
AAUCAGCAAUAUUACGAAGC | -0.428 ± 0.11 | -0.998 ± 0.14
UGCGAGCAAUAUUACGACGA | -1.13 ± 0.13 | -0.458 ± 0.13
ACACAGCAAUAUUACGCGCG | -0.558 ± 0.082 | 0.0666 ± 0.091
CAUUAGCAAUAUUACGCACG | -0.832 ± 0.12 | 0.325 ± 0.14
CAGCAGCAAUAUUACGAUAA | -3.08 ± 0.14 | -2.24 ± 0.13
CCAGAGCAAUAUUACGCAUU | -3.53 ± 0.33 | -2.22 ± 0.2
